Data: publication PMC3954644 (Biochemistry, 2014)

Columns and labels:
AUC = molecular target: the molecule itself; assay: AUC
crystal structure = molecular target: the molecule itself; assay: crystal structure

Row | Protein | stoichiometry N (AUC) | stoichiometry N (crystal structure)
1 | Put2p mutant W193A, residues 23-575, His tag removed (enzyme, S. cerevisiae, UniProt P07275 23-575, looked up) KPPKHIRNEPVKPFRNIDLKDWDLLRASLMKFKSSSLEVPLVINGERIYDNNERALFPQTNPANHQQVLANVTQATEKDVMNAVKAAKDAKKDWYNLPFYDRSAIFLKAADLISTKYRYDMLAATMLGQGKNVYQAEIDCITELSDFFRYYVKYASDLYAQQPVESADGTANKAEYRPLEGFVYAVSPFNFTAIAANLIGAPALMGNTVVWKPSQTAALSNYLLMTVLEEAGLPKGVINFIPGDPVQVTDQVLADKDFGALHFTGSTNVFKSLYGKIQSGVVEGKYRDYPRIIGETGGKNFHLVHPSANISHAVLSTIRGTFEFQGQKCSAASRLYLPESKSEEFLSDMFGILQSQNVVPMNTSASPISGGNLRGFMGPVIHEQSFDKLVKVIEDAKKDPELEILYGGQYDKSQGWFVGPTVIKAKRPDHPYMSTEFFGPILTVYEYPDTEFNEICDIIDNTSQYALTGAIFAKDRKAIEYADEKLKFSAGNFYINDKCTGAVVSQQWFGGARMSGTDDKAGGPNILSRFVSIRNTKENFYELTDFKYPSNYE | 2 | 
2 | human Δ1-pyrroline-5-carboxylate dehydrogenase (HsP5CDH, ALDH4A1), residues 18-563, tag-free (enzyme, UniProt P30038 18-563, looked up) TGAGLRWKHTSSLKVANEPVLAFTQGSPERDALQKALKDLKGRMEAIPCVVGDEEVWTSDVQYQVSPFNHGHKVAKFCYADKSLLNKAIEAALAARKEWDLKPIADRAQIFLKAADMLSGPRRAEILAKTMVGQGKTVIQAEIDAAAELIDFFRFNAKYAVELEGQQPISVPPSTNSTVYRGLEGFVAAISPFNFTAIGGNLAGAPALMGNVVLWKPSDTAMLASYAVYRILREAGLPPNIIQFVPADGPLFGDTVTSSEHLCGINFTGSVPTFKHLWKQVAQNLDRFHTFPRLAGECGGKNFHFVHRSADVESVVSGTLRSAFEYGGQKCSACSRLYVPHSLWPQIKGRLLEEHSRIKVGDPAEDFGTFFSAVIDAKSFARIKKWLEHARSSPSLTILAGGKCDDSVGYFVEPCIVESKDPQEPIMKEEIFGPVLSVYVYPDDKYKETLQLVDSTTSYGLTGAVFSQDKDVVQEATKVLRNAAGNFYINDKSTGSIVGQQPFGGARASGTNDKPGGPHYILRWTSPQVIKETHKPLGDWSYAYMQ |  | 2
